Data taken from patent US20260201058A1.

What was measured:
[1] = molecular target: monkey PD-L1 (Cyno-PD-L1) on cells (monkey (cyno)); assay: flow cytometry on 293F-cyno PD-L1 cells
[2] = molecular target: human PD-L1 on GS-C2 cells (cells overexpressing human PD-L1, GenScript, M00613) (human) (UniProt Q9NZQ7); assay: cell-based or functional assay
[3] = molecular target: human PD-L1 on GS-C2 cells (cells overexpressing human PD-L1, GenScript, M00613) (human) (UniProt Q9NZQ7); assay: flow cytometry on GS-C2 cells

Sequence of human PD-L1 on GS-C2 cells (cells overexpressing human PD-L1, GenScript, M00613) (human) (Q9NZQ7 19-290): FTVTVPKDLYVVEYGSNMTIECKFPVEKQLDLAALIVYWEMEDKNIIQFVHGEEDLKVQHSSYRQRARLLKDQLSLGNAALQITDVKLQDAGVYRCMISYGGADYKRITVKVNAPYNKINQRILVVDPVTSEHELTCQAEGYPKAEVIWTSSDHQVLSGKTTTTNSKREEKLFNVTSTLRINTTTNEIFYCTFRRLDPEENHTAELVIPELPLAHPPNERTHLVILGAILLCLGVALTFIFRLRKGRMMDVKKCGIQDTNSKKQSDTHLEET

EC50 [1]: 1.34 nM | EC50 (nM), blocking of T cell PD-1/PD-L1 signaling pathway (GS-C2 cells with Jurket-NFAT-PD1 cells, luciferase) [2]: 2.38 nM | EC50 [3]: 0.694 nM
Substance: control antibody Benchmark-ATE (monoclonal antibody, Atezolizumab)
